Literature values, collected in PMC10653114.

Key:
Asp61 [1] = molecular target: Asp61 (UniProt position 435, STVTQDGSAVT); conditions: 298 K; Conc. 0.10 (unit not given; K+/Cl–)
Asp17 = Asp17 (UniProt position 17, PPEATDTLNLI); conditions: 295 K; Conc. 0.10 (unit not given; Na+/Cl–)
Glu74 = Glu74 (UniProt position 74, RIITGEATQED); conditions: 295 K; Conc. 0.10 (unit not given; Na+/Cl–)
Asp84 = Asp84 (UniProt position 84, DYYTGDHYATF); conditions: 295 K; Conc. 0.10 (unit not given; Na+/Cl–)
Glu78 = Glu78 (UniProt position 78, GEATQEDYYTG); conditions: 295 K; Conc. 0.10 (unit not given; Na+/Cl–)
Glu14 = Glu14 (UniProt position 14, SALPPEATDTL); conditions: 295 K; Conc. 0.10 (unit not given; Na+/Cl–)
Asp25 = Asp25 (UniProt position 25, NLIASDGPFPY); conditions: 295 K; Conc. 0.10 (unit not given; Na+/Cl–)
Glu54 = Glu54 (UniProt position 54, YGYYHEYTVIT); conditions: 295 K; Conc. 0.10 (unit not given; Na+/Cl–)
Asp33 = Asp33 (UniProt position 33, FPYSQDGVVFQ); conditions: 295 K; Conc. 0.10 (unit not given; Na+/Cl–)
Asp93 = Asp93 (UniProt position 93, TFSLIDQTC--); conditions: 295 K; Conc. 0.10 (unit not given; Na+/Cl–)
Glu41 = Glu41 (UniProt position 41, VFQNRESVLPT); conditions: 295 K; Conc. 0.10 (unit not given; Na+/Cl–)
Asp79 = Asp79 (UniProt position 79, EATQEDYYTGD); conditions: 295 K; Conc. 0.10 (unit not given; Na+/Cl–)
Asp48 = Asp48 (UniProt position 66, TNRNTDGSTDY); assay: NMR (per the title of cited ref 36); conditions: 300 K; Conc. 0.10 (unit not given; Na+/Cl–)
Asp87 = Asp87 (UniProt position 105, ALLSSDITASV); assay: NMR (per the title of cited ref 36); conditions: 300 K; Conc. 0.10 (unit not given; Na+/Cl–)
Asp101 = Asp101 (UniProt position 119, KKIVSDGNGMN); assay: NMR (per the title of cited ref 36); conditions: 300 K; Conc. 0.10 (unit not given; Na+/Cl–)
Asp18 = Asp18 (UniProt position 36, KRHGLDNYRGY); assay: NMR (per the title of cited ref 36); conditions: 300 K; Conc. 0.10 (unit not given; Na+/Cl–)
Asp119 = Asp119 (UniProt position 137, RCKGTDVQAWI); assay: NMR (per the title of cited ref 36); conditions: 300 K; Conc. 0.10 (unit not given; Na+/Cl–)
Glu7 = Glu7 (UniProt position 25, VFGRCELAAAM); assay: NMR (per the title of cited ref 36); conditions: 300 K; Conc. 0.10 (unit not given; Na+/Cl–)
Asp66 = Asp66 (UniProt position 84, RWWCNDGRTPG); assay: NMR (per the title of cited ref 36); conditions: 300 K; Conc. 0.10 (unit not given; Na+/Cl–)
Glu35 = Glu35 (UniProt position 53, CAAKFESNFNT); assay: NMR (per the title of cited ref 36); conditions: 300 K; Conc. 0.10 (unit not given; Na+/Cl–)
Lys13 [2] = molecular target: Lys13 (UniProt position 31, LAAAMKRHGLD); assay: NMR (per the title of cited ref 36); conditions: 300 K; Conc. 0.10 (unit not given; Na+/Cl–)
Lys97 = Lys97 (UniProt position 115, VNCAKKIVSDG); assay: NMR (per the title of cited ref 36); conditions: 300 K; Conc. 0.10 (unit not given; Na+/Cl–)
Asp52 = Asp52 (UniProt position 70, TDGSTDYGILQ); assay: NMR (per the title of cited ref 36); conditions: 300 K; Conc. 0.10 (unit not given; Na+/Cl–)
Lys96 = Lys96 (UniProt position 114, SVNCAKKIVSD); assay: NMR (per the title of cited ref 36); conditions: 300 K; Conc. 0.10 (unit not given; Na+/Cl–)
Lys116 = Lys116 (UniProt position 134, WRNRCKGTDVQ); assay: NMR (per the title of cited ref 36); conditions: 300 K; Conc. 0.10 (unit not given; Na+/Cl–)
Lys33 = Lys33 (UniProt position 51, WVCAAKFESNF); assay: NMR (per the title of cited ref 36); conditions: 300 K; Conc. 0.10 (unit not given; Na+/Cl–)
Asp61 [3] = molecular target: Asp61 (UniProt position 435, STVTQDGSAVH); conditions: 298 K; Conc. 0.10 (unit not given; K+/Cl–)
Asp27 = Asp27 (UniProt position 156, PLCGSDNKTYG); conditions: 298 K; Conc. 0.015 (unit not given; K+/Cl–)
Lys55 = Lys55 (UniProt position 184, LSHFGKC----); conditions: 298 K; Conc. 0.015 (unit not given; K+/Cl–)
Lys13 [4] = molecular target: Lys13 (UniProt position 142, CSEYPKPACTL); conditions: 298 K; Conc. 0.015 (unit not given; K+/Cl–)
Lys34 = Lys34 (UniProt position 163, KTYGNKCNFCN); conditions: 298 K; Conc. 0.015 (unit not given; K+/Cl–)
Lys29 = Lys29 (UniProt position 158, CGSDNKTYGNK); conditions: 298 K; Conc. 0.015 (unit not given; K+/Cl–)
Asp7 = Asp7 (UniProt position 136, AAVSVDCSEYP); conditions: 298 K; Conc. 0.015 (unit not given; K+/Cl–)

In the case of “Highly charge-depleted protein (PDB 6QFS), S61D variant (Cellulomonas fimi (parent domain; not stated in the article); S61D (on the 6QFS charge-depleted background; background substitutions not stated))”, the pKa (Asp61 [1]) is given as 4.15 ± 0.01.
In the case of “Ribonuclease Sa (Streptomyces aureofaciens)”, the pKa (Asp17) is given as 3.72 ± 0.07, the pKa (Glu74) is given as 3.47 ± 0.07 and the pKa (Asp84) is given as 3.01 ± 0.07. For the same substance, the pKa (Glu78) was 3.13 ± 0.07, the pKa (Glu14) was 5.02 ± 0.07 and the pKa (Asp25) was 4.87 ± 0.07. The pKa (Glu54) was 3.42 ± 0.07, the pKa (Asp33) was 2.39 ± 0.07 and the pKa (Asp93) was 3.09 ± 0.07. The pKa (Glu41) was 4.14 ± 0.07 and the pKa (Asp79) was 7.37 ± 0.07.
For “Hen egg-white lysozyme (HEWL) (Gallus gallus)”, the pKa (Asp48) is given as 1.60 ± 0.4, the pKa (Asp87) is given as 2.07 ± 0.15 and the pKa (Asp101) is given as 4.09 ± 0.07. The pKa (Asp18) was 2.66 ± 0.08, the pKa (Asp119) was 3.2 ± 0.09 and the pKa (Glu7) was 2.85 ± 0.25. For the same substance, the pKa (Asp66) was 0.90 ± 0.5, the pKa (Glu35) was 6.20 ± 0.10 and the pKa (Lys13 [2]) was 10.50 ± 0.10. The pKa (Lys97) was 10.30 ± 0.10, the pKa (Asp52) was 3.68 ± 0.08 and the pKa (Lys96) was 10.80 ± 0.10. The pKa (Lys116) was 10.40 ± 0.10 and the pKa (Lys33) was 10.60 ± 0.10.
In the case of “Highly charge-depleted protein (PDB 6QFS), S61D/T66H variant (Cellulomonas fimi (parent domain; not stated in the article); S61D;T66H (on the 6QFS charge-depleted background; background substitutions not stated))”, the pKa (Asp61 [3]) is given as 4.10 ± 0.02.
For “Turkey ovomucoid third domain (OMTKY3) (Meleagris gallopavo)”, the pKa (Asp27) is listed as 2.56 ± 0.03, the pKa (Lys55) is listed as 11.10 ± 0.06 and the pKa (Lys13 [4]) is listed as 9.86 ± 0.03. For the same substance, the pKa (Lys34) was 10.13 ± 0.05, the pKa (Lys29) was 11.12 ± 0.02 and the pKa (Asp7) was 2.95 ± 0.03.
